Results on 20 molecules are retold here after publication PMC7516004, “RICE CENTRORADIALIS 1, a TFL1-like Gene, Responses to Drought Stress and Regulates Rice Flowering Transition”.

The chains are these.
T1: OSBZ8 (Oryza sativa, UniProt Q40645 1-360)
T1 sequence: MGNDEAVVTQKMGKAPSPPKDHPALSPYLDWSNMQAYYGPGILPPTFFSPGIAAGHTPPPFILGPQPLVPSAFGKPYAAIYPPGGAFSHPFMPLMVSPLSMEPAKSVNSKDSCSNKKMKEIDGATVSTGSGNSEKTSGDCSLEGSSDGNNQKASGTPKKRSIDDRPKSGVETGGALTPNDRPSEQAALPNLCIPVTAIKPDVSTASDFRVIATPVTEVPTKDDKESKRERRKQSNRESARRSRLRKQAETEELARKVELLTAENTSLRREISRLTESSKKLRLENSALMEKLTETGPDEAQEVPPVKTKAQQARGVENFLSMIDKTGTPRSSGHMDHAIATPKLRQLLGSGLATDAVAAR

T2: TRAB1 (Oryza sativa, UniProt Q6ZDF3 1-374)
T2 sequence: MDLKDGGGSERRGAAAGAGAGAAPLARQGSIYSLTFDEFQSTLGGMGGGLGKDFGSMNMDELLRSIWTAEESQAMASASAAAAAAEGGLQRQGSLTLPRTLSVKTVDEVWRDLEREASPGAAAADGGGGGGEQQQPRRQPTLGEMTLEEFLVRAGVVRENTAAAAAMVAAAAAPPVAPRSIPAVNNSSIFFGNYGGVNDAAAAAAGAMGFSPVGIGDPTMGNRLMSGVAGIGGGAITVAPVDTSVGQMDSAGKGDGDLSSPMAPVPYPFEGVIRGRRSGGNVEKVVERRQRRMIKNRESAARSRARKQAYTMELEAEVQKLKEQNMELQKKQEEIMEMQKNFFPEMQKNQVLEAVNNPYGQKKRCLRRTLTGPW

B1: Probe 8 (dsDNA)
DNA 1: GATAAGATTGCTCAGCAACGTAATCTTCATAGATCCACTT
DNA 2: AAGTGGATCTATGAAGATTACGTTGCTGAGCAATCTTATC
B2: Probe 1 (dsDNA)
DNA 1: ATCGTGTTCTTCGCCGGCACGTGGTAATGGGCAGAATCTCC
DNA 2: GGAGATTCTGCCCATTACCACGTGCCGGCGAAGAACACGAT
B3: Probe 5 (dsDNA)
DNA 1: ATAAGACAAGTGGTCAAACGTTGCAAACAAAAACTCAAAA
DNA 2: TTTTGAGTTTTTGTTTGCAACGTTTGACCACTTGTCTTAT
B4: Probe 6 (dsDNA)
DNA 1: TGTGGGACGGAGGGAGTACGTCACAAAAATTATGTTACAA
DNA 2: TTGTAACATAATTTTTGTGACGTACTCCCTCCGTCCCACA
B5: Probe 13 (dsDNA)
DNA 1: CTTCATCTGACGTGACACTGACGTGGCGCTTACGTGGCAAGTTGA
DNA 2: TCAACTTGCCACGTAAGCGCCACGTCAGTGTCACGTCAGATGAAG
B6: Mutant-13 (dsDNA)
DNA 1: CTTCATCTGGACACTGGGCGCTTGGCAAGTTGA
DNA 2: TCAACTTGCCAAGCGCCCAGTGTCCAGATGAAG
B7: Probe 7 (dsDNA)
DNA 1: TCCTACATACCCTCAGCACGTAAAGCGAGAAGTTTTATCT
DNA 2: AGATAAAACTTCTCGCTTTACGTGCTGAGGGTATGTAGGA
B8: Mutant-9 (dsDNA)
DNA 1: TGTGGTTTTGGCTGGGCGCCTGGCGAATTTGACTC
DNA 2: GAGTCAAATTCGCCAGGCGCCCAGCCAAAACCACA
B9: Mutant-10 (dsDNA)
DNA 1: TCTTCATCTGGGCATTGATGTGGTGCTTGGCACTTCGA
DNA 2: TCGAAGTGCCAAGCACCACATCAATGCCCAGATGAAGA
B10: Probe 4 (dsDNA)
DNA 1: TTGAGTTTTTGCTTGCAACGTTTGACCACTCGTCTTATTC
DNA 2: GAATAAGACGAGTGGTCAAACGTTGCAAGCAAAAACTCAA
B11: Probe 2 (dsDNA)
DNA 1: AGCTTTGAAACATTTTCCACGTTTCATGAACCAACACTCAAT
DNA 2: ATTGAGTGTTGGTTCATGAAACGTGGAAAATGTTTCAAAGCT
B12: Mutant-12 (dsDNA)
DNA 1: AGTCAAATTAGCCAGGCGACCAGCTAAAACCGC
DNA 2: GCGGTTTTAGCTGGTCGCCTGGCTAATTTGACT
B13: Probe 3 (dsDNA)
DNA 1: GTCATTTTGAGGGGCTGACGTTTGGTGGACAGCGCAGTTT
DNA 2: AAACTGCGCTGTCCACCAAACGTCAGCCCCTCAAAATGAC
B14: Mutant-14 (dsDNA)
DNA 1: AGGAAAAATGGTGGGACCCGGGCCCCACATGTCATCCT
DNA 2: AGGATGACATGTGGGGCCCGGGTCCCACCATTTTTCCT
B15: Mutant-11 (dsDNA)
DNA 1: B14 DNA 1 with G2A, G3T, T30A, C36T
DNA 2: B14 DNA 2 with G3A, A9T, C36A, C37T
B16: Probe 10 (dsDNA)
DNA 1: TCTTCATCTGACGTGGCATTGATGTGGTGCTTACGTGGCACTTCGA
DNA 2: TCGAAGTGCCACGTAAGCACCACATCAATGCCACGTCAGATGAAGA
B17: Probe 9 (dsDNA)
DNA 1: TGTGGTTTTGGCTGACGTGGCGCCTACGTGGCGAATTTGACTC
DNA 2: GAGTCAAATTCGCCACGTAGGCGCCACGTCAGCCAAAACCACA
B18: Probe 12 (dsDNA)
DNA 1: AGTCAAATTAGCCACGTAGGCGACACGTCAGCTAAAACCGC
DNA 2: GCGGTTTTAGCTGACGTGTCGCCTACGTGGCTAATTTGACT
B19: Probe 11 (dsDNA)
DNA 1: AATAAAAATGGTGGGACCCACGTGGGCCCCACAAGTCATTCT
DNA 2: AGAATGACTTGTGGGGCCCACGTGGGTCCCACCATTTTTATT
B20: Probe 14 (dsDNA)
DNA 1: B19 DNA 1 with A2G, T3G, A34T, T40C
DNA 2: B19 DNA 2 with A3G, T9A, A40C, T41C

Residue numbers refer to the chain shown, from its start.

The target in the first series is T1, OSBZ8. Briefly: EMSA; Chemiluminescent Nucleic Acid Detection Module Kit (Thermo) per manufacturer; binding buffer, salt, pH and temperature not stated. The note with it: protein: recombinant; tags: His (pCold vector); chain copies: 2; label: biotin.
On to B1, for which the binding result is “no binding”. On to B2, for which the binding result was “no binding”. Same read-out and setting: for B3 the value was “no binding”; for B4, “no binding”; for B5, “binds”. On the same count and under the same terms, for B6 the value was “no binding”; for B7, “no binding”; for B8, “no binding”. On to B9, for which the binding result was “no binding”. Same read-out and setting: for B10 the value was “no binding”; for B11, “no binding”; for B12, “no binding”. Still for that read-out and setting: for B13 the value was “no binding”. On the same count and under the same terms, for B14 the value was “no binding”. Take B15: the binding result is given as “no binding”.

The next series has as its target T2, TRAB1. The series is described as above. The conditions noted are these: protein: recombinant; tags: His (pCold vector); chain copies: 2; label: biotin.
Consider B1, for which the binding result is “no binding”. For the molecule B16, the binding result is on record as “no binding”.

B17: the binding result is “no binding”. On the same count and under the same terms, for B18 the value was “no binding”; for B19, “no binding”. Turning to B20, the binding result is on record as “no binding”. The same measure, in the same setting: for B2 the value was “no binding”; for B3, “no binding”. For B4, the binding result is “no binding”. On the same count and under the same terms, for B5 the value was “no binding”.

For B7, the binding result is “no binding”. On the same count and under the same terms, for B10 the value was “no binding”. Still for that read-out and setting: for B11 the value was “no binding”; for B13, “no binding”.
